{
  "source": "patent US20210238276A1",
  "about": "(INTEGRAL MOLECULAR, published 2021)",
  "molecules": {"B1": {"name": "AB111 (Fc fusion)", "scFv": "ALTQPSSVSANPGETVKITCSGSGSWYGWFQQKSPGSAPVTVIYSNDKRPSDIPSRFSGSKSGSTSTLTITGVQVEDEAVYYCGNWDIFGAGTTLTVLGQSSRSSGGGGSSGGGGSAVTLDESGGGLQTPGGALSLVCKASGFTFSSHGMGWVRQAPGKGLEWVASISTGRYTFYAPAVKGRATISRDNGQSTVRLQLNNLRAEDTATYYCTKCAGLNGCGGGEIDAWGHGTEVIVSS", "notes": "Bivalent scFv-Fc; also called MAb AB111; not shown: Fc fragment of human IgG1, cloned in frame with the scFv"}, "B2": {"name": "AB101 (scFv)", "scFv": "ALTQPSSVSANPGETVKITCSGSSNSYGWYQQKSPGSAPVTVIYYNDKRPSDIPSRFSGSKSDSTHTLTITGVRAEDEAVYFCGSYDSTYVGIFGAGTTLTVLGQSSRSSGGGGSSGGGGSAVTLDESGGGLQTPGGTLSLVCKASGFTFSSNAMGWVRQAPGKGLEWVAGISSDGRYTKYGSAVKGRATISRDNGQSTVRLQLNNLRAEDTGTYFCAKAFGNNYRRIYAGQIDAWGHGTEVIVSS", "notes": "Chicken-derived clone used as a control; the four lead clones were tested as scFv-human IgG1 Fc; also called MAb AB101"}, "B3": {"name": "AB108 (Fc fusion)", "scFv": "ALTQPSSVSANLGGTVKITCSGSSGSYGWYQQKAPGSAPVTLIYRNDKRPSDIPSRFSGSESGSTGTLTITGVQAEDEAVYFCGGYDSSAGYAAFGAGTTLTVLGQSSRSSGGGGSSGGGGSAVTLDESGGGLQTPGGALSLVCKASGFTFSSHGMGWVRQAPGKGLEWVGSISTGRYTFYAPAVKGRATISRDNGQSTLRLQLNNLRAEDTGTYYCTKCAGLNGCGGGEIDAWGHGTEVIVSS", "notes": "Bivalent scFv-Fc; also called MAb AB108; not shown: Fc fragment of human IgG1, cloned in frame with the scFv"}},
  "test_in_all_cases": "flow cytometry, alanine-scan library in HEK-293T",
  "key": {"[1]": {"target": "T1, hsGLUT4 P224A (human, UniProt P14672 1-509)", "T1 sequence": "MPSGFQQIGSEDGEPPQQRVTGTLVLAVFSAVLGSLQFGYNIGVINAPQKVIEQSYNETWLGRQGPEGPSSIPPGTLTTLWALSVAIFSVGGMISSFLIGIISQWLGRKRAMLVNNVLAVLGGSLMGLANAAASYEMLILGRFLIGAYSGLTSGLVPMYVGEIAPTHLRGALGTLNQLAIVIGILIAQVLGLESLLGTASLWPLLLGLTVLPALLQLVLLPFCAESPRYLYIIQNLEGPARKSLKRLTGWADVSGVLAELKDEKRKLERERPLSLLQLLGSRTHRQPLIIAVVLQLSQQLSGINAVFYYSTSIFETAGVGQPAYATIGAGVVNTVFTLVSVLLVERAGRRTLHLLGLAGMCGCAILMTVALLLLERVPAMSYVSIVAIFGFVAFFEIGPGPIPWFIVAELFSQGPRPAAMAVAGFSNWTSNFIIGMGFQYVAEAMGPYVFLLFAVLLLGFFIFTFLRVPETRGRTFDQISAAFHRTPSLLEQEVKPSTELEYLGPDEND", "method_in_brief": "(§1)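 HEK-293T cells expressing individual GLUT4 alanine mutants were stained 48 h post-transfection with anti-GLUT4 scFv MAbs (2 μg/ml), then biotinylated secondary and streptavidin-PerCP, and read by high-throughput flow cytometry. Where used, cytochalasin B (10 uM final) was given for 30 min before and during primary antibody staining.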"}, "[2]": {"target": "T2, hsGLUT4 V306A (human, UniProt P14672 1-509)", "T2 sequence": "T1 sequence with A224P, V306A", "method_in_brief": "as §1"}, "[3]": {"target": "T3, hsGLUT4 F314A (human, UniProt P14672 1-509)", "T3 sequence": "T1 sequence with A224P, F314A", "method_in_brief": "as §1"}, "[4]": {"target": "T4, hsGLUT4 G414A (human, UniProt P14672 1-509)", "T4 sequence": "T1 sequence with A224P, G414A", "method_in_brief": "as §1"}},
  "note": "Changes are numbered by the printed parent chain.",
  "data": [
    {"molecule": "1F8 (antibody)", "values": [
      {"measurement": "% of binding to wild type GLUT4", "setting": "[1]", "result": 103, "unit": "%"},
      {"measurement": "% of binding to wild type GLUT4", "setting": "[2]", "result": 74, "unit": "%"},
      {"measurement": "% of binding to wild type GLUT4", "setting": "[3]", "result": 91, "unit": "%"},
      {"measurement": "% of binding to wild type GLUT4", "setting": "[4]", "result": 78, "unit": "%"}
    ]},
    {"molecule": "B1", "values": [
      {"measurement": "% of binding to wild type GLUT4", "setting": "[1]", "result": 108, "unit": "%"},
      {"measurement": "% of binding to wild type GLUT4", "setting": "[2]", "result": 171, "unit": "%"},
      {"measurement": "% of binding to wild type GLUT4", "setting": "[3]", "result": 166, "unit": "%"},
      {"measurement": "% of binding to wild type GLUT4", "setting": "[4]", "result": 109, "unit": "%"}
    ]},
    {"molecule": "B2", "values": [
      {"measurement": "% of binding to wild type GLUT4", "setting": "[1]", "result": 90, "unit": "%"},
      {"measurement": "% of binding to wild type GLUT4", "setting": "[2]", "result": 91, "unit": "%"},
      {"measurement": "% of binding to wild type GLUT4", "setting": "[3]", "result": 91, "unit": "%"},
      {"measurement": "% of binding to wild type GLUT4", "setting": "[4]", "result": 83, "unit": "%"}
    ]},
    {"molecule": "B3", "values": [
      {"measurement": "% of binding to wild type GLUT4", "setting": "[1]", "result": 56, "unit": "%"},
      {"measurement": "% of binding to wild type GLUT4", "setting": "[2]", "result": 83, "unit": "%"},
      {"measurement": "% of binding to wild type GLUT4", "setting": "[3]", "result": 92, "unit": "%"},
      {"measurement": "% of binding to wild type GLUT4", "setting": "[4]", "result": 80, "unit": "%"}
    ]}
  ]
}
